Results taken from paper PMC5093550.

Columns and labels:
[1] = molecular target: α-synuclein fibrils; test: fluorescence spectroscopy of the fibrils formed; seeded fibrils formed with unlabelled monomeric α-synuclein and monomeric Alexa-568-β-synuclein, compared with fibrils formed with Alexa-568-α-synuclein; pH 6.5
[2] = molecular target: α-synuclein fibrils; test: microfluidic diffusional sizing; monomeric Alexa-568-β-synuclein incubated (15 min) with unlabelled α-synuclein fibrils at [α-synuclein fibrils]:[β-synuclein monomer] (M:M) of 5 and 40; conditions of the seeded kinetic experiments (pH 6.5); degree of binding estimated from the effective hydrodynamic radius

degree of incorporation into the fibrils [1]: < 3%
degree of binding at [α-synuclein fibrils]:[β-synuclein monomer] ratio 5 [2]: < 5%
degree of binding at [α-synuclein fibrils]:[β-synuclein monomer] ratio 40 [2]: 10%
Substance: Alexa-568-β-synuclein, monomeric (from UniProt Q16143 1-134) (natural protein)
